Experimental data as given in patent publication US20240190983A1 (JULIUS MAXIMILIANS UNIVERSIT T W RZBURG, published 2024).

Key:
Murine TNFR2 [1] = target: T1, Murine TNFR2 (mouse, UniProt P25119 23-474); assay: equilibrium binding of VHH-Fc-GpL to cells expressing mouse TNFR2, 37 C; column head Affinity (ng/ml)
T1 construct: Expressed on transiently transfected HEK293 cells; also called mouse TNFR2; TNFR2(mu)
T1 sequence: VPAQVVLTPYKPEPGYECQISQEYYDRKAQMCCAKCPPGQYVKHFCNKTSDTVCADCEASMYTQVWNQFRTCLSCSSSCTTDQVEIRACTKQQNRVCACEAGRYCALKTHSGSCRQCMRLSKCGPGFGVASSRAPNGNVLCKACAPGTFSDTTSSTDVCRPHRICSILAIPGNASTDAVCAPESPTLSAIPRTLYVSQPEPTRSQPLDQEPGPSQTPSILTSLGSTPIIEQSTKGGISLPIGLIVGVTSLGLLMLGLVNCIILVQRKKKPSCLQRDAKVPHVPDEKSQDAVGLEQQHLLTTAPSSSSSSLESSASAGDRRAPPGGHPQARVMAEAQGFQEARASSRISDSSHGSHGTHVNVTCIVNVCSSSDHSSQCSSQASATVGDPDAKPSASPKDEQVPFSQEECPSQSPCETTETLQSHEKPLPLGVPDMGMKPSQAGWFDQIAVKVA
Method: (§1) Specific binding (open circles) was obtained by subtraction of the non-specific binding values (Hek293 cells—crosses) from the binding values for transfectants expressing human TNFR2 (total binding—closed circles). Specific binding was analyzed with the “nonlinear regression to a one-site specific binding curve” function of the GraphPad Prism5 software.
(§2) The equivalent experiment was also performed using TNFR2 from different species, namely from Mus musculus (mouse), Macaca fascicularis (cynomolgus monkey), and Chlorocebus sabaeus (African green monkey) to study the ability of the VHH regions to bind to TNFR2 from different species. The ability to cross react to TNFR2 from different species can be helpful in allowing the antibodies to be studied in various models before assessment in human patients.

[2] = target: T2, African green monkey TNFR2 (Chlorocebus sabaeus (African green …)); assay: equilibrium binding of VHH-Fc-GpL to cells expressing African green monkey TNFR2, 37 C; column head Affinity (ng/ml)
T2 construct: whole, on cells
Method: as §1, §2

Human TNFR2 [3] = target: T3, Human TNFR2 (human, UniProt P20333 23-461); assay: equilibrium binding of VHH-Fc-GpL to cells expressing human TNFR2, 37 °C; HEK293 cells as unspecific binding; one-site fit of specific binding
T3 construct: On cells: HeLa-TNFR2, HT1080-Bcl2-TNFR2, transiently transfected HEK293; endogenous on Kym-1 cells; also called huTNFR2; TNFRSF1B
T3 sequence: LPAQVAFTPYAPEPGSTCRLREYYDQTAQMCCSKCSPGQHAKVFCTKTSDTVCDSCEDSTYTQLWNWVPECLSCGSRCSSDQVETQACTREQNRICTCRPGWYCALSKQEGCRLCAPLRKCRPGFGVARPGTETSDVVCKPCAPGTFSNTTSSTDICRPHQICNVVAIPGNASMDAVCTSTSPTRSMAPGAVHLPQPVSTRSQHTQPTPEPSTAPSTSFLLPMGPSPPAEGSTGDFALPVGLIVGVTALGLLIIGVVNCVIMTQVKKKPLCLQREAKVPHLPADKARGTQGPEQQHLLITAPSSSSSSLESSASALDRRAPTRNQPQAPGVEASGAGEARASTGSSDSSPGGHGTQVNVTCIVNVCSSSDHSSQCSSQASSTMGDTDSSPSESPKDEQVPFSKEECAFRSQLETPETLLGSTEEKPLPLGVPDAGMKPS

Cynomolgus TNFR2 [4] = target: T4, Cynomolgus TNFR2 (Macaca fascicularis (cynomolgus monkey), UniProt P20333 26-461 (human entry)); assay: equilibrium binding of VHH-Fc-GpL to cells expressing cynomolgus TNFR2, 37 C; column head Affinity (ng/ml)
T4 construct: Expressed on transiently transfected HEK293 cells; also called TNFR2-cyno; monkey TNFR2
T4 chain: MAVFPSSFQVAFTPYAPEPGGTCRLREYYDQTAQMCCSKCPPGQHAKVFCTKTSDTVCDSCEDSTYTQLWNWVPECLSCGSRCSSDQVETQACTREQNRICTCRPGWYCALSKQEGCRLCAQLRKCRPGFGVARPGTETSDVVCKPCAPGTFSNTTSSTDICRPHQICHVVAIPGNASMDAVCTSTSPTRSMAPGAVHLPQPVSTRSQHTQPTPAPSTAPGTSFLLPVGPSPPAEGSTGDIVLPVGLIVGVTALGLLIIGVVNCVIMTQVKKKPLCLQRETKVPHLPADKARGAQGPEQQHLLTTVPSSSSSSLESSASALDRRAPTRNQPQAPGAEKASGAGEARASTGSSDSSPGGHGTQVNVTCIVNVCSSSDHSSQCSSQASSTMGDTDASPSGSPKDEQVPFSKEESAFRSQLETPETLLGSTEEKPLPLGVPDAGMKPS
Method: as §1, §2

Human TNFR2 [5] = target: T3, Human TNFR2; assay: specific binding of the GpL fusion protein to HeLa-TNFR2 cells after 8 h, HeLa values subtracted, luciferase activity normalised to GpL per binding site
Method: HeLa-TNFR2 cells were pretreated with 3-10 μg/ml of the indicated anti-TNFR2 antibodies or remained untreated. […] Supernatants of HeLa-TNFR2 cells were then analyzed for TNFR2-induced IL8 production (B) and repeatedly washed cells (HeLa, and HeLa-TNFR2) were analyzed for cell-associated GpL activity. Specific binding to TNFR2, shown in (A) was calculated by subtraction of the unspecific binding values obtained from the HeLa cells from the total binding values derived of the HeLa-TNFR2 cells. […] The latter was transformed into “occupied receptors per cells” by help of the number of cells in the assay and the measured specific activity (RLU/molecule) of the GpL constructs.
Supernatants of HeLa-TNFR2 were then analyzed for TNFR2-induced IL8 production with the results shown in (B). Repeatedly washed cells (HeLa, and HeLa-TNFR2) were analyzed for cell-associated GpL activity. Specific binding to TNFR2, was calculated by subtraction of the unspecific binding values obtained from the HeLa cells from the total binding values derived of the HeLa-TNFR2 cells with the results obtained shown in (A).

Cynomolgus TNFR2 [6] = target: T4, Cynomolgus TNFR2; assay: equilibrium binding of VHH-Fc-GpL to cells expressing cynomolgus TNFR2, 37 C
Method: as §1, §2

Murine TNFR2 [7] = target: T1, Murine TNFR2; assay: equilibrium binding of VHH-Fc-GpL to cells expressing mouse TNFR2, 37 C
Method: as §1, §2

B1: VHH:C188-Fc-GpL (Fc fusion, Gaussia princeps)
chain: DVQLVESGGGSVQTGGSLTLSCAISGSTSERYCLGWFRQAPGREREGVAATSLTGRGAQFYADSVKGRFTISLDDAKNTLYLQMDSLRPDDTAVYYCAEDVGFLCGYDSDNDPFYDWGQGTQVTVSS
notes: also called VHH-Fc-GpL format protein of C188; not shown: Fc domain; Gaussia princeps luciferase (GpL) reporter domain at the C-terminus of the Fc
Kd (Murine TNFR2 [1]): 0.95 µg/mL
Kd [2]: 0.15 µg/mL
Kd (Human TNFR2 [3]): 0.57 µg/mL
Kd (Cynomolgus TNFR2 [4]): 0.45 µg/mL

B2: VHH:C238-Fc-GpL (Fc fusion)
VHH: QVQLVESGGGSVQPGGSLTLSCVDSGSAYLSYCMAWFRQAPGKEREGVAAIYYGGDSYYADSVKGRFTISQDHAKNTMYLQMNSLKPEDTAVYYCAADVGFICGYDSDNDPPNDWGQGTQVTVSS
notes: also called VHH-Fc-GpL format protein of C238; not shown: the listing has no entry for the VHH-Fc-GpL format
Kd (Murine TNFR2 [1]): 1.05 µg/mL
Kd [2]: 0.17 µg/mL
Kd (Human TNFR2 [3]): 0.67 µg/mL
Kd (Cynomolgus TNFR2 [4]): 0.2 µg/mL

B3: C4-IgG1(N297A)-LC:GpL-HC:scFvC4 (antibody)
light: EVKLVPRQLDIVMTQSHKFMSTSVGDRVSITCKASQDVDTAVAWYQQKPGQSPKLLIYWASTRHTGVPDRFTGSGSGTDYTLTISSVQAEDLARYYCQQYYSVPPTFGGGTKLGSEIKRTVAAPSVFIFPPSDEQLKSGTASVVCLLNNFYPREAKVQWKVDNALQSGNSQESVTEQDSKDSTYSLSSTLTLSKADYEKHKVYACEVTHQGLSSPVTKSFNRGECLEKPTENNEDFNIVAVASNFATTDLDADRGKLPGKKLPLEVLKEMEANARKAGCTRGCLICLSHIKCTPKMKKFIPGRCHTYEGDKESAQGGIGEAIVDIPEIPGFKDLEPMEQFIAQVDLCVDCTTGCLKGLANVQCSDLLKKWLPQRCATFASKIQGQVDKIKGAGGD
heavy: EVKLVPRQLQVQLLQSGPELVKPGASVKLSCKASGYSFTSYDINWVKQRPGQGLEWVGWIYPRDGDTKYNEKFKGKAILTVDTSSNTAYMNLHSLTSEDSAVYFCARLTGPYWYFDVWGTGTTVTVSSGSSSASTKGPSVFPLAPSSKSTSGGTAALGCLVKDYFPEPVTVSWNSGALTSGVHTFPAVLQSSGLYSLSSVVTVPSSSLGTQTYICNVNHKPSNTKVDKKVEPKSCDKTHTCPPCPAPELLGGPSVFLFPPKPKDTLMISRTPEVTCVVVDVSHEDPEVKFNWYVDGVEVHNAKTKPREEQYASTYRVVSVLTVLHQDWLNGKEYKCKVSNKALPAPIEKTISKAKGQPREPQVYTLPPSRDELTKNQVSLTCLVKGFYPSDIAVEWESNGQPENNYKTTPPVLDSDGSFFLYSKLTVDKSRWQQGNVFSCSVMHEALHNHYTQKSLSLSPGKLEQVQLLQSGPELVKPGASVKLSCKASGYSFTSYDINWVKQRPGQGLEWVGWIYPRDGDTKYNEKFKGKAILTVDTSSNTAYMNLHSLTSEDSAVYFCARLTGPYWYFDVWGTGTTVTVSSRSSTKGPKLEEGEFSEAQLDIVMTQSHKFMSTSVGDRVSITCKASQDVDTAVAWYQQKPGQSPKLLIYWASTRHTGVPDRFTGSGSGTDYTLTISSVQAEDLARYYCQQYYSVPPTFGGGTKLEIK
notes: copies: 2 + 2
binding result (Human TNFR2 [5]): binds

B4: VHH:C12-Fc-GpL (Fc fusion)
VHH: DVQLVESGGGLVQPGGSLRLSCGGSGFTFSSYGMSWVRQAPGKGLEWVSGIYDDGSVTDYADSVKGRFTISRDDAKNTVYLQMNSLKSEDTALYYCATGEDGELNYWGQGTQVTVSS
notes: also called VHH-Fc-GpL format protein of C12; not shown: The Fc domain, the C-terminal GpL reporter and the linkers or tags of the VHH-Fc-GpL construct; No entry gives the joined chain or says which Fc variant was used
binding result (Cynomolgus TNFR2 [6]): no binding
Kd [2]: 0.08 µg/mL
Kd (Human TNFR2 [3]): 0.8 µg/mL
binding result (Murine TNFR2 [7]): no binding

B5: VHH:C178-Fc-GpL (Fc fusion)
VHH: DVQLVESGGGLVHPGGSLRLSCAASGFTFSADDATWARQPPGKGLEWISTLYFDTEEKTYADSVKGRFIISRDIAKNTVYLQMNNLKPEDTGMYVCTATWAGGSLLRPASFGVWGQGTQVTVSS
notes: also called VHH-Fc-GpL format protein of C178; not shown: The Fc domain, the C-terminal GpL reporter and the linkers or tags of the VHH-Fc-GpL construct; No entry gives the joined chain or says which Fc variant was used
binding result (Cynomolgus TNFR2 [6]): no binding
Kd [2]: 0.06 µg/mL
Kd (Human TNFR2 [3]): 0.9 µg/mL
binding result (Murine TNFR2 [7]): no binding
